Test results reported in US12397037B2, “Methods and compositions for immunomodulation” (CHILDREN'S MEDICAL CENTER CORPORATION, priority 2014, dated 2025).

Experiments:
[1] = system: mTORC1 and mTORC2; experiment: Immunoprecipitation of mTOR with raptor and rictor in U87MG cells; type: cell-based, human; conditions: SEMA3F 640 ng/ml, 30 minutes
Protocol: FIG. 29A depicts U87MG cells treated with SEMA3F (640 ng/ml) for 30 minutes and subjected to immunoprecipitation and Western blot analysis with anti-mTOR, -raptor and -rictor as illustrated. FIG. 29B depicts U87MG cells treated with rapamycin (10 nM) or Torin 1 (10 nM) for 30 minutes, prior to SEMA3F (640 ng/ml) treatment for 60 minutes; lysates were analyzed by Western blot. FIG. 29C depicts bar graphs representing densitometric analysis of the illustrated blot showing the fold change in intensity (mean±SD) relative to the untreated control (*, p <0.01; **, p<0.001 vs. untreated control). FIG. 29D depicts U87MG cells transiently transfected with a pcDNA3.1 empty vector or with constitutively active Akt (2DAkt). Cells were treated with SEMA3F (640 ng/ml) and lysates were analyzed by Western blot. All data are representative of 3 independent experiments.
FIGS. 35A-35B depict analysis of the effect of SEMA3F on mTORC2 activity. […] depicts a Western blot. U87MG cells were transiently transfected with a pcDNA3.1 empty vector or with constitutively active Akt (2DAkt). Cells were treated with SEMA3F (640 ng/ml) and lysates were analyzed by Western blot. FIG. 35B depicts a Western blot. U87MG cells were transiently transfected with a pcDNA3.1 empty vector or with 2DAkt. […]

[2] = system: U87MG cells; experiment: F-actin stress fiber staining (phalloidin) in U87MG cells; type: cell-based, human
Protocol: FIG. 30A depicts U87MG cells treated with SEMA3F (640 ng/ml), rapamycin (10 nM) or Torin 1 (10 nM) for 30 minutes. Subsequently, cells were stained with Alexa Fluor 488 phalloidin and Hoechst 33342 to identify F-actin cytoskeleton stress fibers and cellular nuclei, respectively. […] The scale bar indicates 20 μm. FIG. 30B depicts U87MG cells transiently transfected with a pcDNA3.1 empty vector or with a wild type (WT) mTOR plasmid and after 18 hours treated with SEMA3F (640 ng/ml) for 30 minutes. Cells were stained as described above in FIG. 30A. Representative cellular staining is shown; bar graph represents the number of fibers/cell (mean±SD) from 3 independent experiments. FIG. 30C depicts U87MG cells transfected with control siRNA or with raptor- or rictor-specific siRNAs (20 nM). After 48 hours, they were treated with SEMA3F for 30 minutes and stained with Alexa Fluor 488 phalloidin and Hoechst 33342 as above. The number of stress fibers was evaluated in 3 independent experiments and shown as the mean±SD. FIG. 30D depicts U87MG cells transiently transfected with pcDNA3.1 empty vector or with our WT mTOR plasmid. After 18 hours, the cells were treated with SEMA3F (640 ng/ml) for 10 minutes and RhoA activity was evaluated. FIG. 30E depicts U87MG cells transfected with control siRNA or with raptor- or rictor-specific siRNAs (20 nM), were treated with SEMA3F (640 ng/ml) for 10 minutes and RhoA activity was analyzed. In FIGS. 30D-30E, the intensity of active RhoA was normalized to respective total RhoA; the numbers below each gel lane represent the fold-change in intensity relative to control. FIGS. 30D-30E are representative of 3 independent experiments.
mTORC2 links SEMA3F biology with the F-actin cytoskeleton. It was next determined whether the inhibition of mTORC2 serves as an intermediary response to link SEMA3F activity with cytoskeletal collapse. U87MG cells were treated either with SEMA3F (640 ng/ml), rapamycin (10 nM) or Torin 1 (10 nM) for 30 minutes and the actin cytoskeleton was visualized using phalloidin staining. […] These findings indicate that SEMA3F has minimal direct effects on mTORC1.
F-actin staining: Cells were fixed with 4% paraformaldehyde (PFA) followed by permeabilization with 0.2% Triton X-100 in PBS. F-actin and nuclei were stained with Alexa Fluor 488 phalloidin and Hoechst 33342, respectively. Confocal images from 3-5 areas of each culture were reviewed and stress fibers were counted in representative individual cells (˜5/experiment) using standard methodology as described6.

[3] = system: C57BL/6 recipients of fully mismatched BALB/c cardiac allografts; experiment: Fully MHC mismatched cardiac allograft survival (BALB/c into C57BL/6); type: in vivo, mice; conditions: for mean graft survival: untreated controls 6.5 days
Source text: FIG. 2 depicts graft survival curves. Cardiac allografts (Balb/c) were transplanted into fully MHC mismatched recipients (C57BL/6). Unmanipulated recipients reject these allografts within 7-8 days.
FIG. 3 depicts graft survival curves. Cardiac allografts (Balb/c) were transplanted into fully MHC mismatched recipients (C57BL/6). Unmanipulated recipients reject these allografts within 7-8 days.
FIG. 4 depicts graft survival curves of C56BL6 recipient mice after transplantation with Balb/C donor hearts.
Described herein is the treatment of C57BL/6 recipients of fully mismatched BALB/c cardiac allografts with Sema3F.
Ba1b/C donor hearts were transplanted into C56BL6 mice.

[4] = system: U87MG cells; conditions: U87MG cells within 24 hours; reference 6; cited from earlier work

B1: SEMA3F: Human recombinant full-length His-Myc-tagged SEMA3F, secreted by transfected 293T cells and purified; class 3 semaphorin, NRP-2 ligand (protein, listed as Homo sapiens)
chain: MLVAGLLLWASLLTGAWPSFPTQDHLPATPRVRLSFKELKATGTAHFFNFLLNTTDYRILLKDEDHDRMYVGSKDYVLSLDLHDINREPLIIHWAASPQRIEECVLSGKDVNGECGNFVRLIQPWNRTHLYVCGTGAYNPMCTYVNRGRRAQATPWTQTQAVRGRGSRATDGALRPMPTAPRQDYIFYLEPERLESGKGKCPYDPKLDTASALINEELYAGVYIDFMGTDAAIFRTLGKQTAMRTDQYNSRWLNDPSFIHAELIPDSAERNDDKLYFFFRERSAEAPQSPAVYARIGRICLNDDGGHCCLVNKWSTFLKARLVCSVPGEDGIETHFDELQDVFVQQTQDVRNPVIYAVFTSSGSVFRGSAVCVYSMADIRMVFNGPFAHKEGPNYQWMPFSGKMPYPRPGTCPGGTFTPSMKSTKDYPDEVINFMRSHPLMYQAVYPLQRRPLVVRTGAPYRLTTIAVDQVDAADGRYEVLFLGTDRGTVQKVIVLPKDDQELEELMLEEVEVFKDPAPVKTMTISSKRQQLYVASAVGVTHLSLHRCQAYGAACADCCLARDPYCAWDGQACSRYTASSKRRSRRQDVRHGNPIRQCRGFNSNANKNAVESVQYGVAGSAAFLECQPRSPQATVKWLFQRDPGDRRREIRAEDRFLRTEQGLLLRALQLSDRGLYSCTATENNFKHVVTRVQLHVLGRDAVHAALFPPLSMSAPPPPGAGPPTPPYQELAQLLAQPEVGLIHQYCQGYWRHVPPSPREAPGAPRSPEPQDQKKPRNRRHHPPDT
modifications: His-Myc tag
notes: Human recombinant full-length His-Myc-tagged SEMA3F, secreted by transfected 293T cells and purified; class 3 semaphorin, NRP-2 ligand
Question: What does the source list for B1?
Answer: association between mTOR and raptor / rictor [1]: inhibited the association between mTOR and both raptor and rictor; mTOR/rictor interaction in 2DAkt transfected cells [1]: inhibited mTOR/rictor interaction; stress fiber formation in mTOR overexpressing cells ([2]; U87MG cells transfected with mTOR overexpression construct, SEMA3F 640 ng/ml, 30 minutes): minimal effects on stress fiber formation; stress fiber formation and cytoskeletal arrangement ([2]; U87MG cells, SEMA3F 640 ng/ml, rapamycin 10 nM or Torin 1 10 nM, 30 minutes, vs untreated): markedly inhibits stress fiber formation and cytoskeletal arrangement; stress fiber formation in raptor-siRNA treated cells ([2]; U87MG cells, siRNA 20 nM, SEMA3F 30 minutes): reduced stress fiber formation; inhibition of stress fiber formation ([2]; pcDNA3.1 control vector transfected U87MG cells, SEMA3F 640 ng/ml, 30 minutes): 90%; rejection in NRP-2KO mice ([3]; NRP-2KO recipients): can inhibit rejection; mean graft survival ([3]; Sema3F administered via adenovirus, n=4 mice): > 22 days; mean graft survival ([3]; Sema3F administered via i.p. injection, n=16 mice): 23.4 days; CD3, CD4, CD8 and Treg populations by FACS ([3]; day 5 post transplantation, mice of FIG. 2 (adenovirus)): no differences are observed; apoptosis [4]: does not induce apoptosis
